# Positions of bridges follow the written chain, without caps; N, C: chain ends. No end group written: not given here.
# Target: T1, Soluble IGF-1R (R&D Systems, Cat. # 391-GR/CF); recombinant human IGF-1R (human, UniProt P08069 31-935)
# T1 construct: extracellular domain; Eu3+-labelled in the TR-FRET assays; also called sIGF-1R; rhIGF-1R
# Assay: phage ELISA, vs IR
row,Binder,IGF-1R/IR Comparison [ratio]
1,RFDPFYSYFVNLLGASA [NNRPγ-4-A7-IR],4.9
2,LRIANLFYQRLWDLAFGGGG [20E22-3-E8-IGFR],11.1
3,DSVGDNFYQLLESLVGGHGVG [20E28-3-D6-IGFR],6.9
4,IIGGFYSYFNSVLRLGT [NNRPγ-4-A1-IR],6
5,NSRDGGFYLQLERLLGFPVTG [20E2B-3-D4-IGFR],9.6
6,FFYRCLSRLLGGQLGSRLGLSCIGD (disulfide 5-22 (inferred)) [20C-3-E4-IGFR],6
7,RGIVAMVEATEVGSDHDPFYHKLSELVQGS [B6Hα-2-C7-IR],6.7
8,QPDHSYFYSLLQELVGSEERL [20E2B-4-F9-IGFR],7.7
9,PAGPCGFYCGLGLLLHGDQSP (disulfide 5-9 (inferred)) [20E2B-4-H8-IGFR],5.9
10,QPAPDGFYSALMKLIGRGGVS [20E2B-3-C8-IGFR],8.9
11,QFYGCLLDLSLGVPSFGWRRRCITA (disulfide 5-22 (inferred)) [20C-3-A4-IGFR],7.6
12,LSSDGQFYRALNLLLQGSAGR [20E2B-2-B7-IGFR],6.7
13,PVGVQGFYEGLSRLVLGRGGW [20E22-4-F8-IGFR],9.7
14,RGKTAAVIVGRPADPFYHKLSELLQGG [26Hα-3-E8-IR],4.8
15,RQGTGSFYLMLEQLLVGARGP [20E2B-4-G11-IGFR],7
16,VGTVAGFYDAIAQLVARASRV [20E2A-3-C7-IGFR],5.1
17,EGSGFYGYFFSLLGLQG [NNRPy-4-A9-IR],7.1
18,SGAKVIVVTGDSGDPFYHKLSELLQGS [B6Eα-2-C10-IR],5.3
19,RFSTDGFYQYLLALVGGGPVG [20E28-1-A11-ICFR],9.7
20,LGVTDGFYAALGYLIHGVGQF [20E2B-3-D11-IGFR],7.6
21,ASSASGFYELLQRLAGLGLEV [20E2B-3-C4-1GFR],6.2
22,TLRSPTFYDWLEMVLTHGQGG [20E22-1-A8-IGFR],5
23,PGTDLGFYQALRCVVIQGACD (not fully specified (bridges); cysteine pairing not given here) [20E2B-2-22-IGFR],8.1
24,GCVVEWQKWHGASDPFYHKLSELGGCS (disulfide 2-26 (inferred)) [B6Hα-3-F10-IR],4.6
25,IWATGDFYRLLSQLVMGRVGT [20E2B-2-88-IGFR],7.2
26,VATSQGFYSGLSELLQGGGNV [20E2H-3-E12-IGFR],7.3
27,ICTGQGFYQVLCGLLRGTSAR (disulfide 2-12 (inferred)) [20E2B-2-B3-IGFR],7.4
28,DRAFYNGLRDLVGAVYGAWD [R20α-4-20C11-IR],10.3
29,RCQGTGFYTCIQELIGFGDPD (disulfide 2-10 (inferred)) [20E2B-4-E9-IGFR],5.6
30,QGNVLDFYGWIGRLLAKQGSD [20E2B-3-D12-IGFR],7.3

# Target: T1, Soluble IGF-1R (R&D Systems, Cat. # …)
# Assay: phage ELISA vs milk
row,Binder,Ratio over Background [fold]
1,RFDPFYSYFVNLLGASA [NNRPγ-4-A7-IR],6.3
2,LRIANLFYQRLWDLAFGGGG [20E22-3-E8-IGFR],16.7
3,DSVGDNFYQLLESLVGGHGVG [20E28-3-D6-IGFR],17.8
4,IIGGFYSYFNSVLRLGT [NNRPγ-4-A1-IR],10.9
5,NSRDGGFYLQLERLLGFPVTG [20E2B-3-D4-IGFR],7.9
6,FFYRCLSRLLGGQLGSRLGLSCIGD (disulfide 5-22 (inferred)) [20C-3-E4-IGFR],7.7
7,RGIVAMVEATEVGSDHDPFYHKLSELVQGS [B6Hα-2-C7-IR],6.7
8,QPDHSYFYSLLQELVGSEERL [20E2B-4-F9-IGFR],14.7
9,PAGPCGFYCGLGLLLHGDQSP (disulfide 5-9 (inferred)) [20E2B-4-H8-IGFR],5.3
10,QPAPDGFYSALMKLIGRGGVS [20E2B-3-C8-IGFR],15.6
11,QFYGCLLDLSLGVPSFGWRRRCITA (disulfide 5-22 (inferred)) [20C-3-A4-IGFR],8.8
12,LSSDGQFYRALNLLLQGSAGR [20E2B-2-B7-IGFR],6.1
13,PVGVQGFYEGLSRLVLGRGGW [20E22-4-F8-IGFR],7.3
14,RGKTAAVIVGRPADPFYHKLSELLQGG [26Hα-3-E8-IR],5.3
15,RQGTGSFYLMLEQLLVGARGP [20E2B-4-G11-IGFR],4.5
16,VGTVAGFYDAIAQLVARASRV [20E2A-3-C7-IGFR],5.4
17,EGSGFYGYFFSLLGLQG [NNRPy-4-A9-IR],10
18,SGAKVIVVTGDSGDPFYHKLSELLQGS [B6Eα-2-C10-IR],5.8
19,RFSTDGFYQYLLALVGGGPVG [20E28-1-A11-ICFR],9.5
20,LGVTDGFYAALGYLIHGVGQF [20E2B-3-D11-IGFR],12.2
21,ASSASGFYELLQRLAGLGLEV [20E2B-3-C4-1GFR],20.4
22,TLRSPTFYDWLEMVLTHGQGG [20E22-1-A8-IGFR],4.4
23,PGTDLGFYQALRCVVIQGACD (not fully specified (bridges); cysteine pairing not given here) [20E2B-2-22-IGFR],4.9
24,GCVVEWQKWHGASDPFYHKLSELGGCS (disulfide 2-26 (inferred)) [B6Hα-3-F10-IR],8.8
25,IWATGDFYRLLSQLVMGRVGT [20E2B-2-88-IGFR],5.7
26,VATSQGFYSGLSELLQGGGNV [20E2H-3-E12-IGFR],6
27,ICTGQGFYQVLCGLLRGTSAR (disulfide 2-12 (inferred)) [20E2B-2-B3-IGFR],5.3
28,DRAFYNGLRDLVGAVYGAWD [R20α-4-20C11-IR],30.8
29,RCQGTGFYTCIQELIGFGDPD (disulfide 2-10 (inferred)) [20E2B-4-E9-IGFR],5.2
30,QGNVLDFYGWIGRLLAKQGSD [20E2B-3-D12-IGFR],6.2

# Target: T2, Insulin receptor prepared according to Bass et al., 1996: soluble human insulin receptor-immunoglobulin heavy … (human, UniProt P06213 28-956)
# T2 construct: extracellular domain; Eu3+-labelled in TR-FRET; also called IR; sIR-Fc; not shown: immunoglobulin heavy chain constant domains that replace the transmembrane and i
# Assay: phage ELISA vs milk
row,Binder,Ratio over Background [fold]
1,RFDPFYSYFVNLLGASA [NNRPγ-4-A7-IR],1.3
2,LRIANLFYQRLWDLAFGGGG [20E22-3-E8-IGFR],1.5
3,DSVGDNFYQLLESLVGGHGVG [20E28-3-D6-IGFR],2.6
4,IIGGFYSYFNSVLRLGT [NNRPγ-4-A1-IR],1.8
5,NSRDGGFYLQLERLLGFPVTG [20E2B-3-D4-IGFR],0.8
6,FFYRCLSRLLGGQLGSRLGLSCIGD (disulfide 5-22 (inferred)) [20C-3-E4-IGFR],1.3
7,RGIVAMVEATEVGSDHDPFYHKLSELVQGS [B6Hα-2-C7-IR],1
8,QPDHSYFYSLLQELVGSEERL [20E2B-4-F9-IGFR],1.9
9,PAGPCGFYCGLGLLLHGDQSP (disulfide 5-9 (inferred)) [20E2B-4-H8-IGFR],0.9
10,QPAPDGFYSALMKLIGRGGVS [20E2B-3-C8-IGFR],1.8
11,QFYGCLLDLSLGVPSFGWRRRCITA (disulfide 5-22 (inferred)) [20C-3-A4-IGFR],1.2
12,LSSDGQFYRALNLLLQGSAGR [20E2B-2-B7-IGFR],0.9
13,PVGVQGFYEGLSRLVLGRGGW [20E22-4-F8-IGFR],0.8
14,RGKTAAVIVGRPADPFYHKLSELLQGG [26Hα-3-E8-IR],1.1
15,RQGTGSFYLMLEQLLVGARGP [20E2B-4-G11-IGFR],0.6
16,VGTVAGFYDAIAQLVARASRV [20E2A-3-C7-IGFR],1.1
17,EGSGFYGYFFSLLGLQG [NNRPy-4-A9-IR],1.4
18,SGAKVIVVTGDSGDPFYHKLSELLQGS [B6Eα-2-C10-IR],1.1
19,RFSTDGFYQYLLALVGGGPVG [20E28-1-A11-ICFR],1
20,LGVTDGFYAALGYLIHGVGQF [20E2B-3-D11-IGFR],1.6
21,ASSASGFYELLQRLAGLGLEV [20E2B-3-C4-1GFR],3.3
22,TLRSPTFYDWLEMVLTHGQGG [20E22-1-A8-IGFR],0.9
23,PGTDLGFYQALRCVVIQGACD (not fully specified (bridges); cysteine pairing not given here) [20E2B-2-22-IGFR],0.6
24,GCVVEWQKWHGASDPFYHKLSELGGCS (disulfide 2-26 (inferred)) [B6Hα-3-F10-IR],1.9
25,IWATGDFYRLLSQLVMGRVGT [20E2B-2-88-IGFR],0.8
26,VATSQGFYSGLSELLQGGGNV [20E2H-3-E12-IGFR],0.8
27,ICTGQGFYQVLCGLLRGTSAR (disulfide 2-12 (inferred)) [20E2B-2-B3-IGFR],0.7
28,DRAFYNGLRDLVGAVYGAWD [R20α-4-20C11-IR],3
29,RCQGTGFYTCIQELIGFGDPD (disulfide 2-10 (inferred)) [20E2B-4-E9-IGFR],0.9
30,QGNVLDFYGWIGRLLAKQGSD [20E2B-3-D12-IGFR],0.9

# Target: T2, Insulin receptor prepared according to …
# Assay: phage ELISA, vs IGF-1R
row,Binder,IR/IGF-1R Comparison [ratio]
1,RFDPFYSYFVNLLGASA [NNRPγ-4-A7-IR],0.2
2,LRIANLFYQRLWDLAFGGGG [20E22-3-E8-IGFR],0.1
3,DSVGDNFYQLLESLVGGHGVG [20E28-3-D6-IGFR],0.1
4,IIGGFYSYFNSVLRLGT [NNRPγ-4-A1-IR],0.2
5,NSRDGGFYLQLERLLGFPVTG [20E2B-3-D4-IGFR],0.1
6,FFYRCLSRLLGGQLGSRLGLSCIGD (disulfide 5-22 (inferred)) [20C-3-E4-IGFR],0.2
7,RGIVAMVEATEVGSDHDPFYHKLSELVQGS [B6Hα-2-C7-IR],0.1
8,QPDHSYFYSLLQELVGSEERL [20E2B-4-F9-IGFR],0.1
9,PAGPCGFYCGLGLLLHGDQSP (disulfide 5-9 (inferred)) [20E2B-4-H8-IGFR],0.2
10,QPAPDGFYSALMKLIGRGGVS [20E2B-3-C8-IGFR],0.1
11,QFYGCLLDLSLGVPSFGWRRRCITA (disulfide 5-22 (inferred)) [20C-3-A4-IGFR],0.1
12,LSSDGQFYRALNLLLQGSAGR [20E2B-2-B7-IGFR],0.1
13,PVGVQGFYEGLSRLVLGRGGW [20E22-4-F8-IGFR],0.1
14,RGKTAAVIVGRPADPFYHKLSELLQGG [26Hα-3-E8-IR],0.2
15,RQGTGSFYLMLEQLLVGARGP [20E2B-4-G11-IGFR],0.1
16,VGTVAGFYDAIAQLVARASRV [20E2A-3-C7-IGFR],0.2
17,EGSGFYGYFFSLLGLQG [NNRPy-4-A9-IR],0.1
18,SGAKVIVVTGDSGDPFYHKLSELLQGS [B6Eα-2-C10-IR],0.2
19,RFSTDGFYQYLLALVGGGPVG [20E28-1-A11-ICFR],0.1
20,LGVTDGFYAALGYLIHGVGQF [20E2B-3-D11-IGFR],0.1
21,ASSASGFYELLQRLAGLGLEV [20E2B-3-C4-1GFR],0.2
22,TLRSPTFYDWLEMVLTHGQGG [20E22-1-A8-IGFR],0.2
23,PGTDLGFYQALRCVVIQGACD (not fully specified (bridges); cysteine pairing not given here) [20E2B-2-22-IGFR],0.1
24,GCVVEWQKWHGASDPFYHKLSELGGCS (disulfide 2-26 (inferred)) [B6Hα-3-F10-IR],0.2
25,IWATGDFYRLLSQLVMGRVGT [20E2B-2-88-IGFR],0.1
26,VATSQGFYSGLSELLQGGGNV [20E2H-3-E12-IGFR],0.1
27,ICTGQGFYQVLCGLLRGTSAR (disulfide 2-12 (inferred)) [20E2B-2-B3-IGFR],0.1
28,DRAFYNGLRDLVGAVYGAWD [R20α-4-20C11-IR],0.1
29,RCQGTGFYTCIQELIGFGDPD (disulfide 2-10 (inferred)) [20E2B-4-E9-IGFR],0.2
30,QGNVLDFYGWIGRLLAKQGSD [20E2B-3-D12-IGFR],0.1
